Measurements as given in the supplement of paper PMC6757056.
± gives the standard deviation of the averaged measurements.

B1: library; a variant is named by its letters at N, in order (parent)
chain: GCUGUCACCGAGAAACUGUGAAGUAUAUCUUAAACCUGGGCACUUAAAAGAUAUAUGGAGUUAGUAGUGCAACCUGCUCGGUCUGAUGAGUCCNNNNNNGGACGAAACAGC

Assays:
cyclic di-GMP [1] = variants of: B1; test: normalized RNA/DNA level without ligand (relative to sTRSVctl = 100) (log10 (% of sTRSVctl)); HEK293T; ligand: cyclic di-GMP (c-di-GMP-II aptamer); higher = less ribozyme self-cleavage, higher mRNA level; settings: reporter: mCherry (pCS4076), ligand present: no
Summary of the method: (§1)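 For each 6-well well, 4 µg of library plasmid encoding mCherry-linked ribozyme switches, or eGFP-linked ones in some ligand experiments, was transfected into HEK293T. Any ligand was added 1 h before transfection, and RNA was extracted with EDTA 72 h after it, then reverse-transcribed, amplified, barcoded and sequenced. RNA level was obtained by dividing RNA reads by DNA reads, normalizing to a spiked-in non-cleaving sequence or to the top sequences, then scaling and log-transforming. The top set was 25 sequences, scaling was ×100 with log10, and ≥100 DNA reads were required.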

cyclic di-GMP [2] = variants of: B1; test: normalized RNA/DNA level with ligand (relative to sTRSVctl = 100) (log10 (% of sTRSVctl)); HEK293T; ligand: cyclic di-GMP (c-di-GMP-II aptamer); ligand concentration (+) RNA-Seq: 1 mM; higher = less ribozyme self-cleavage, higher mRNA level; settings: reporter: mCherry (pCS4076), ligand present: yes
Summary of the method: as §1

Variant | normalized RNA/DNA level without ligand (log10) (cyclic di-GMP [1]) | normalized RNA/DNA level with ligand (log10) (cyclic di-GMP [2])
GGCUCU | 1.78 ± 0.041 | 1.92 ± 0.076
GGCUCC | 1.88 ± 0.022 | 1.96 ± 0.11
GGCUCG | 1.78 ± 0.055 | 1.87 ± 0.036
GGCUCA | 1.69 ± 0.021 | 1.88 ± 0.22
GGGCGC | 1.84 ± 0.027 | 1.92 ± 0.091
UGGCGU | 1.6 ± 0.03 | 1.81 ± 0.16
UGGCGA | 1.597 ± 0.0046 | 1.74 ± 0.11
UGGCGC | 1.818 ± 0.018 | 1.9 ± 0.14
UGGCGG | 1.854 ± 0.013 | 1.93 ± 0.13
UGGCAA | 1.64 ± 0.028 | 1.8 ± 0.1
UGGCAC | 1.72 ± 0.043 | 1.86 ± 0.024
UGGCAG | 1.847 ± 0.0028 | 1.93 ± 0.063
UGGAGU | 1.59 ± 0.1 | 1.76 ± 0.11
UGGAGA | 1.58 ± 0.082 | 1.76 ± 0.069
UGGAGG | 1.699 ± 0.0024 | 1.84 ± 0.14
UGGAGC | 1.64 ± 0.062 | 1.81 ± 0.15
CGGGUU | 1.748 ± 0.012 | 1.82 ± 0.13
AGGAUU | 1.49 ± 0.032 | 1.73 ± 0.12
UGCGGU | 1.63 ± 0.035 | 1.8 ± 0.12
UGCGGG | 1.81 ± 0.045 | 1.92 ± 0.067

Variant | normalized RNA/DNA level without ligand (log10) (cyclic di-GMP [1]) | normalized RNA/DNA level with ligand (log10) (cyclic di-GMP [2])
UGCGGA | 1.559 ± 0.0066 | 1.78 ± 0.12
UGCGGC | 1.757 ± 0.0021 | 1.9 ± 0.12
GGGAGU | 1.67 ± 0.071 | 1.72 ± 0.16
GGGAGC | 1.625 ± 0.0022 | 1.76 ± 0.1
GGGAAA | 1.46 ± 0.14 | 1.544 ± 0.007
GGGAAG | 1.63 ± 0.069 | 1.7145 ± 0.00089
GGGAAU | 1.6 ± 0.095 | 1.79 ± 0.14
GGGAAC | 1.68 ± 0.031 | 1.84 ± 0.057
UGGUAU | 1.661 ± 0.013 | 1.82 ± 0.13
UGGUAG | 1.66 ± 0.035 | 1.82 ± 0.13
UGGUAC | 1.684 ± 0.015 | 1.83 ± 0.092
UGGUAA | 1.56 ± 0.095 | 1.79 ± 0.096
UGGGAU | 1.55 ± 0.12 | 1.75 ± 0.11
UGGGAC | 1.697 ± 0.01 | 1.84 ± 0.078
UGGGAG | 1.673 ± 0.012 | 1.79 ± 0.14
CGGGGG | 1.62 ± 0.059 | 1.77 ± 0.026
CGGGGU | 1.72 ± 0.0034 | 1.83 ± 0.13
UGCGUA | 1.6 ± 0.029 | 1.81 ± 0.1
UGCGUG | 1.71 ± 0.084 | 1.9 ± 0.096
UGCGUC | 1.75 ± 0.019 | 1.85 ± 0.13

Variant | normalized RNA/DNA level without ligand (log10) (cyclic di-GMP [1]) | normalized RNA/DNA level with ligand (log10) (cyclic di-GMP [2])
AGCUCA | 1.69 ± 0.013 | 1.81 ± 0.12
AGCUCU | 1.76 ± 0.096 | 1.88 ± 0.17
AGCUCC | 1.81 ± 0.019 | 1.88 ± 0.089
GGGACC | 1.84 ± 0.063 | 1.9 ± 0.15
GGGACU | 1.68 ± 0.031 | 1.83 ± 0.056
GGGACA | 1.7 ± 0.042 | 1.75 ± 0.11
GGGUAA | 1.61 ± 0.091 | 1.7 ± 0.12
GGGUAC | 1.73 ± 0.012 | 1.8 ± 0.045
GGGUAG | 1.85 ± 0.057 | 1.89 ± 0.059
GGGUAU | 1.75 ± 0.041 | 1.9 ± 0.23
AGGGGA | 1.53 ± 0.1 | 1.59 ± 0.054
AGGGGC | 1.69 ± 0.1 | 1.83 ± 0.091
AGGGGG | 1.72 ± 0.026 | 1.81 ± 0.075
AGGGGU | 1.57 ± 0.058 | 1.7 ± 0.13
CGGCAG | 1.792 ± 0.0062 | 1.86 ± 0.077
CGGCGU | 1.726 ± 0.013 | 1.91 ± 0.16
CGGCGA | 1.49 ± 0.068 | 1.67 ± 0.11
CGGCGG | 1.68 ± 0.059 | 1.81 ± 0.077
